# Where a chain is given by its changes, count along the chain named.
# T1: 재조합 인간 TIGIT-His 단백질 (recombinant human TIGIT-His protein) (human) (UniProt Q495A1)
# T1 sequence (looked up): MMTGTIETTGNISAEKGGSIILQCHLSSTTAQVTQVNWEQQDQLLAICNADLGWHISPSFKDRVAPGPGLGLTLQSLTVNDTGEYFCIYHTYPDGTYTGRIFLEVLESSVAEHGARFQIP
# T2: 인간 TIGIT (human TIGIT on cells) (human, UniProt Q495A1 22-244)
# T2 construct: whole, on cells; also called hTIGIT
# T2 sequence (looked up): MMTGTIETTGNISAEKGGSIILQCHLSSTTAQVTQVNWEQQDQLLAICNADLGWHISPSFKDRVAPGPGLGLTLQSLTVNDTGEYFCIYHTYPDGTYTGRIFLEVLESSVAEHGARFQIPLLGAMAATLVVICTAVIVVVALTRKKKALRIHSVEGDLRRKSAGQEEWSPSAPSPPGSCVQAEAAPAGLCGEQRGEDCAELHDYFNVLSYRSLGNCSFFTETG
# T3: 재조합 인간 TIGIT-His 단백질 (recombinant human TIGIT-His protein) (human, UniProt Q495A1 22-141)
# T3 construct: All are treated here as one molecule; also called TIGIT-His(Sino); 항원; not shown: His tag
# T3 sequence (looked up): T1 sequence (looked up)
# B1: chimeric-후보항체 clone 62F (antibody, V domains shown)
# VH: EVQLQQSGPELVKPGASVKISCKTSGFTFTEYTMHWVKQSHGKSLEWIGGFNPNSGGSSYNQKFKGKATLTVDKSSSTAFMELRSLTSEDSAAYYCARSSYYRFDLDYWGQGTTLTVSS
# VL: DIVMTQSHKFMSTSVGDRVSITCKASQDVKTAVAWYQQKPGQSPQLLIYSASFRYTGVPDRFTGSGSGADFTFTISSVQAEDLAAYYCQQHYTTPWTFGGGTKLEIK
# notes: also called chimeric 62F
# B2: clone 62F (hybridoma antibody) (antibody, V domains shown)
# VH: B1 VH
# VL: B1 VL
# notes: Mouse hybridoma antibody
# B3: 인간화 후보항체 clone 19D (antibody, V domains shown)
# VH: QVQLVQSGAEVKKPGASVKVSCKASGYTFSNYVMHWVRQAPGQRLEWIGYINPYNDGTKYNEKFKGRATLTSDRSASTAYMELSSLRSEDTAVYYCARWRVNYYFDYWGQGTLVTVSS
# VL: DIQLTQSPSSLSASVGDRVTITCRASSSVNYMHWYQQKPGKAPKAWISVTSNLASGVPSRFSGSGSGTDYTLTISSLQPEDFATYYCQQWSSNPPWTFGQGTKVEIK
# notes: Humanized; also called 인간화 후보항체 19D; humanized 19D
# B4: 인간화 후보항체 clone 63F (antibody, V domains shown)
# VH: EVQLVESGGGLVQPGGSLRLSCAASGSTFSNYWMNWVRQAPGKGLEWVAEIRLKFNNYATHYVESVIGRFTISRDDSKNSVYLQMNSLKTEDTAVYYCTMVRRNWYFDVWGRGTLVTVSS
# VL: EIVLTQSPATLSLSPGERATLSCSASSSVSSSYLYWYQQKPGLAPRLWIYSTSNLASGIPDRFSGSGSGTDYTLTISRLEPEDFAVYYCHQWSSYPYTFGQGTKLEIK
# notes: Humanized; also called 인간화 후보항체 63F; humanized 63F
# B5: 인간화 후보항체 clone 75G (antibody, V domains shown)
# VH: B4 VH with S27V, N57D, I67K
# VL: B4 VL with S32G, N54D
# notes: Humanized; also called 인간화 후보항체 75G; humanized 75G
# B6: T21.13 (antibody, V domains shown)
# VH: QVQLVQSGAEVKKPGASVKVSCKASGYTFTSYVMHWVRQAPGQRLEWIGYINLNNDGTKYNEKFKGRATLTSDKSASTAYMELSSLRSEDTAVYYCARWRVYYYAMDYWGQGTLVTVSS
# VL: EIVLTQSPATLSLSPGERATLSCNASSSVDYVHWYQQKPGQAPRPWIYEISKLASGIPARFSGSGSGTDYTLTISSLEPEDFAVYYCQLWNYPLITFGQGTKVEIK
# notes: Gene engineered variant of 58E; also called clone T21.13
# B7: T21.33 (antibody, V domains shown)
# VH: B6 VH
# VL: B6 VL with D69S
# notes: also called clone T21.33
# B8: chimeric-후보항체 clone 63F (antibody, V domains shown)
# VH: EVQLEEFGGGLVQPGGSMKLSCVASGSTFSNYWMNWVRQSPEKGLEWVAEIRLKFNNYATHYVESVIGRFTISRDDSKSSVYLQMNNLRAEDTGIYYCTMVRRNWYFDVWGAGTTVTVSS
# VL: QIVLTQSPAIMSAFPGEKVTLTCSASSSVSSSYLYWYQQKPRSSPKLWIYSTSNLASGVPARFSGSGSGTSYSLTISSMEAEDAASYFCHQWSSYPYTFGGGTKLEIK
# B9: clone 75G (hybridoma antibody) (antibody, V domains shown)
# VH: B8 VH with Q3N, F7S, S27V, N57D, I67K, K78E
# VL: B8 VL with F14S, S32G, Q39K, R42G, N54D, S71F, S78N
# notes: Mouse hybridoma antibody (culture medium)
# B10: chimeric-후보항체 clone 75G (antibody, V domains shown)
# VH: B8 VH with Q3N, F7S, S27V, N57D, I67K, K78E
# VL: B8 VL with F14S, S32G, Q39K, R42G, N54D, S71F, S78N
# notes: also called chimeric 75G
# B11: chimeric-후보항체 clone 19D (antibody, V domains shown)
# VH: EVQLQQSGPELVKPGASVKMSCKASGYTFSNYVMHWVKQKPGQGLEWIGYINPYNDGTKYNEKFKGKATLTSDRSSSTAYMELSSLTSEDSAVYYCARWRVNYYFDYWGQGTTLTVSS
# VL: QIVLSQSPAILSASPGEKVTMTCRASSSVNYMHWYQQKPGSSPKAWISVTSNLASGVPARFSGSGSGTSYSLTISRVEAEDAATYYCQQWSSNPPWTFGGGTKLEIK
# notes: Produced in Expi293; also called chimeric 19D
# B12: chimeric-후보항체 clone 58E (antibody, V domains shown)
# VH: EVQLQQSGPELVKPGASVKMSCKASGYTFTSYVMHWVKQKPGQGLEWIGYINLNNDGTKYNEKFKGKATLSSDKSSSTAYMELSSLTSEDSAVYYCARWRVYYYAMDYWGQGTSVTVSS
# VL: EIVLTQSPAITAASLGQKVTITCSASSSVNYMHWYQQKSGTSPRPWIYEISKLASGVPARFSGSGSGTSYSLTISSMEAEDAAIYYCQLWNYPLITFGAGTKLELK
# notes: also called chimeric 58E; 후보항체 58E
# B13: T21.09 (antibody, V domains shown)
# VH: B12 VH
# VL: B6 VL
# notes: Gene engineered variant of 58E; also called clone T21.09
# B14: T21.11 (antibody, V domains shown)
# VH: B6 VH
# VL: B12 VL with S24N, N30D, M32V
# notes: Gene engineered variant of 58E: humanized 58E heavy chain, light chain T21L01; also called clone T21.11
# B15: clone 58E (hybridoma antibody) (antibody, V domains shown)
# VH: B12 VH
# VL: B12 VL
# notes: as for B9
# B16: T21.01 (antibody, V domains shown)
# VH: B12 VH
# VL: B12 VL with S24N, N30D, M32V
# notes: Gene engineered variant of 58E; produced in Expi293F; also called clone T21.01
# B17: 인간화 후보항체 clone 62F (antibody, V domains shown)
# VH: QVQLVQSGAEVKKPGASVKVSCKASGFTFTEYTMHWVRQAPGQGLEWIGGFNPNSGGSSYNQKFKGRATLTVDKSISTAYMELSRLRSDDTAVYYCARSSYYRFDLDYWGQGTTVTVSS
# VL: DIQMTQSPSSLSASVGDRVTITCKASQDVKTAVAWYQQKPGKAPKLLIYSASFRYTGVPSRFSGSGSGADFTLTISSLQPEDFATYYCQQHYTTPWTFGQGTKVEIK
# notes: Humanized; also called 인간화 후보항체 62F; hu62F
# Assays:
# [1] = target: T1, 재조합 인간 TIGIT-His 단백질 (recombinant human TIGIT-His protein) (human); test: SPR, chimeric antibodies; antigen not given
# [2] = target: T2, 인간 TIGIT (human TIGIT on cells); test: flow cytometry on CD4 and CD8 T cells of anti-hCD3/28-activated human PBMC
# [3] = target: T3, 재조합 인간 TIGIT-His 단백질 (recombinant human …); test: hybridoma culture medium; 도 1 is flow cytometry on anti-hCD3/28-activated human T cells, the sentence names recombinant human TIGIT-His
# [4] = target: T2, 인간 TIGIT (human TIGIT on cells); test: flow cytometry on artificial effector T cells expressing TIGIT
# [5] = target: T3, 재조합 인간 TIGIT-His 단백질 (recombinant human …); test: ELISA, plate coated with recombinant human TIGIT-His, as in Example 3-(1)
# [6] = target: T1, 재조합 인간 TIGIT-His 단백질 (recombinant human TIGIT-His protein) (human); test: SPR, humanized antibodies; antigen not given
# [7] = target: T3, 재조합 인간 TIGIT-His 단백질 (recombinant human …); test: SPR; antigen not given
# [8] = target: T3, 재조합 인간 TIGIT-His 단백질 (recombinant human …); test: method not named in the sentence (SPR of Example 7); antigen not given
# [9] = target: T3, 재조합 인간 TIGIT-His 단백질 (recombinant human …); test: ELISA, plate coated with recombinant human TIGIT-His, anti-hIgG-HRP detection
binder,measurement,setting,value
B1,"결합력, fold higher than the control Oncomed-313M32 antibody",[1],30 배
same,binding result,[2],binds
B2,binding result,[3],binds
B3,binding result,[4],binds
same,binding result,[5],binds
B4,"결합력, fold higher than humanized clone 19D",[6],13 배
same,binding result,[4],binds
B5,"결합력, fold higher than humanized clone 19D",[6],36 배
same,binding result,[4],binds
B6,binding result,[7],binds
B7,binding result,[8],binds
B8,"결합력, fold higher than the control Oncomed-313M32 antibody",[1],6 배
B9,binding result,[3],binds
B10,"결합력, fold higher than the control Oncomed-313M32 antibody",[1],30 배
same,binding result,[2],binds
B11,binding result,[9],binds
B12,"결합력, fold higher than the control Oncomed-313M32 antibody",[1],13 배
same,binding result,[2],binds
B13,binding result,[7],binds
B14,binding result,[7],binds
B15,binding result,[3],binds
B16,binding result,[7],binds
B17,"결합력, fold higher than humanized clone 19D",[6],33 배
same,binding result,[4],binds
